This is an account of results in patent US20250186614A1, “COMPACT DRUG RESPONSIVE DOMAINS FOR REGULATION OF FUNCTION/ABUNDANCE AND DELIVERY OF POLYPEPTIDE PAYLOADS” (OBSIDIAN THERAPEUTICS, INC., priority 2022, published 2025).

The chains are these.
B1: FKBP-139: FKBP13 DRD Q72R, Q84E, A117W, E130R; SEQ ID NO: 89 (protein)
chain: HCPIKSRKGDVLHMHYTGKLEDGTEFDSSLPRNQPFVFSLGTGEVIKGWDQGLLGMCEGEKRKLVIPSELGYGERGWPPKIPGGATLVFRVELLKIER
modifications: Description of sequence: FKBP13-AcGFP-mCherry Fusion; Construct Name: FKBP-139; FKBP13 DRD in Construct : FKBP13 (mutated to match FKBP12 active site Q72R Q84E A117W) (DRD E130R)
B2: FKBP-141: FKBP13 DRD Q72R, Q84E, A117R, L52R; SEQ ID NO: 91 (protein)
chain: B1 chain with L12R, W77R, R90E
modifications: Description of sequence: FKBP13-AcGFP-mCherry Fusion; Construct Name: FKBP-141; FKBP13 DRD in Construct : FKBP13 (mutated to match FKBP12 active site Q72R Q84E A117R (DRD L52R))
B3: FKBP-140: FKBP13 DRD Q72R, Q84E, A117W, K135Y; SEQ ID NO: 90 (protein)
chain: B1 chain with R90E, K95Y
modifications: Description of sequence: FKBP13-AcGFP-mCherry Fusion; Construct Name: FKBP-140; FKBP13 DRD in Construct : FKBP13 (mutated to match FKBP12 active site Q72R Q84E A117W) (DRD K135Y)
B4: FKBP-144: FKBP13 DRD Q72R, Q84E, A117H, D50R, E98M; SEQ ID NO: 94 (protein)
chain: B1 chain with D10R, E58M, W77H, R90E
modifications: Description of sequence: FKBP13-AcGFP-mCherry Fusion; Construct Name: FKBP-144; FKBP13 DRD in Construct : FKBP13 (mutated to match FKBP12 active site Q72R Q84E A117H) (DRD D50R E98M)
B5: FKBP-142: FKBP13 DRD Q72R, Q84E, A117W, T64G; SEQ ID NO: 92 (protein)
chain: B1 chain with T24G, R90E
modifications: Description of sequence: FKBP13-AcGFP-mCherry Fusion; Construct Name: FKBP-142; FKBP13 DRD in Construct : FKBP13 (mutated to match FKBP12 active site Q72R Q84E A117W) (DRD T64G)
B6: FKBP-145: FKBP13 DRD Q72R, Q84E, A117H, H41S, E61D; SEQ ID NO: 95 (protein)
chain: B1 chain with H1S, E21D, W77H, R90E
modifications: Description of sequence: FKBP13-AcGFP-mCherry Fusion; Construct Name: FKBP-145; FKBP13 DRD in Construct : FKBP13 (mutated to match FKBP12 active site Q72R Q84E A117H) (DRD H41S E61D)
B7: FKBP-143: FKBP13 DRD Q72R, Q84G, A117H, P43R; SEQ ID NO: 93 (protein)
chain: B1 chain with P3R, E44G, W77H, R90E
modifications: Description of sequence: FKBP13-AcGFP-mCherry Fusion; Construct Name: FKBP-143; FKBP13 DRD in Construct : FKBP13 (mutated to match FKBP12 active site Q72R Q84G A117H) (DRD P43R)

Residue numbers refer to the chain shown, from its start. Names and notes keep the numbering of the source.

The assay has as its system Jurkat cells. The experiment in a line: Tacrolimus dose response of FKBP13-AcGFP-mCherry constructs stably transduced into Jurkat cells, GFP MFI by flow cytometry. Particulars: tacrolimus, Jurkat cells stably transduced; Table 6. In kind it is cell-based. Summed up: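 GFP geometric MFI was read by flow cytometry in mCherry+ cells and curve-fitted against tacrolimus dose. Cells were Jurkat E6-1, lentivirus-transduced with FKBP13-AcGFP-mCherry fusion constructs until 10-25% mCherry-positive on day 5 post-transduction.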
(Flow cytometry measures light scatter and fluorescence of single cells or particles in a stream.)
B1: the “Fold Change” value came to 52.24. The figure for B2 is 1.00. Under B3 stands 28.70; under B4, 1.24; under B5, 33.42. Under B6 stands 11.05; under B7, 14.97.
